Reference: patent US20250388597A1, “BIFUNCTIONAL PHOTOCROSSLINKING PROBES FOR COVALENT CAPTURE OF PROTEIN-NUCLEIC ACID COMPLEXES IN CELLS” (UNIVERSITY OF SOUTHERN CALIFORNIA, priority 2022, published 2025)

Tests used:
NFAT1 DNA binding domain [1] = target: T1, NFAT1 DNA binding domain (Homo sapiens, UniProt Q13469 Q13469:399-676); assay: SPB-AAD 100 uM + UV365 photocrosslinking, SDS-PAGE
T1 sequence: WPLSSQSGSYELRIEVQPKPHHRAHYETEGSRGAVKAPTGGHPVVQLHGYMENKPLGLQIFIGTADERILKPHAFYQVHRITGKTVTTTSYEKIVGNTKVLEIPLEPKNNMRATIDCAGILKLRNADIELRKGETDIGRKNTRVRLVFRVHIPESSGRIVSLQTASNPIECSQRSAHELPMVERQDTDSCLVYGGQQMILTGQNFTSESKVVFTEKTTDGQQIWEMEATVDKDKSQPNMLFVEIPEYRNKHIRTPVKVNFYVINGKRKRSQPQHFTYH
Protocol: The UV illumination (as indicated by a positive sign) was carried out using a LED Chip (21.4 mm×21.4 mm, 365-370 nm, 30 Watt, sample distance 2 cm, exposure time 2-15 min at 4 degree C., here the exposure time is 15 min). Half of the binding reaction (7.5 μl) was run on a 10% PAGE 0.5×TBE gel and visualized by Cy5 fluorescence on DNA. The small amount of single stranded DNA is due to incomplete annealing. The higher smearing bands are most likely non-specific protein complexes. Neither of these experimental imperfections affected the main conclusion of this experiment because the double stranded-DNA bands and the specific NFAT-DNA complex bands (the middle sharp bands) are well defined and can be monitored without the interference of the other bands.
(§1) FIG. 12D depicts the other half of binding reaction from the above experiments (FIG. 12C) were added SDS loading dye (2% SDS), boil for 10 min, and run on SDS gel (4-15% gradient gel). The gel was visualized by Cy5 fluorescence for DNA.
FIG. 12E depicts further characterization of BFPX crosslinking of NFAT1/DNA complexes using different DNA substrates and staining techniques. […] The reactions were then analyzed by SDS PAGE under denaturing condition as described in FIG. 12D. […]

MEF2A DNA binding domain [2] = target: T2, MEF2A DNA binding domain (Homo sapiens, UniProt Q02078 Q02078:2-95); assay: SPB-AAD 100 uM + UV365 photocrosslinking, SDS-PAGE; no crosslink without probe; conditions: chain copies: 2; label: 5'6-FAM
p53 DNA binding domain = p53 DNA binding domain (Homo sapiens, UniProt P04637 P04637:102-292); assay: SPB-AAD, SPB-PEG4-AAD or SPB-Spermidine-AD + UV365 photocrosslinking, SDS-PAGE; conditions: chain copies: 4 stated; label: 5'-Cy5
NFAT1 DNA binding domain [3] = target: T1, NFAT1 DNA binding domain; assay: EMSA; 20 mM Hepes pH 7.6, 150 mM NaCl, 1 mM DTT, 12% glycerol, RT; formaldehyde diminished binding, BFPX probes did not; also photocrosslinked; conditions: label: 5'-Cy5 (or 5'6-FAM)
Protocol: FIG. 12C depicts Native EMSA assay of the effect of Formaldehyde (FA), BFPX probe (SPB-AAD, SPB-PEG4-AAD, and SPB-Spermidine-AD) at various concentrations, and UVA (365 nm) on the DNA binding by NFAT1. The binding reactions were performed in a buffer of 20 mM Hepes pH 7.6, 150 mM NaCl, 1 mM DTT, 12% glycerol. Typically protein and DNA are mixed to bind at room temperature for 30 min, followed by addition of BFPX probes for an additional 15 min and then UV illumination. In the case of FA treatment, the reaction time is 10 min at room temperature and then quenched by 250 mM glycine. […] Half of the binding reaction (7.5 μl) was run on a 10% PAGE 0.5×TBE gel and visualized by Cy5 fluorescence on DNA. […] Neither of these experimental imperfections affected the main conclusion of this experiment because the double stranded-DNA bands and the specific NFAT-DNA complex bands (the middle sharp bands) are well defined and can be monitored without the interference of the other bands.
as §1

MEF2A DNA binding domain [4] = target: T2, MEF2A DNA binding domain; assay: 4AMT-SDAD + UV365 photocrosslinking, reversed by TCEP; conditions: chain copies: 2; label: 5'6-FAM
[5] = target: Nkx2.5 DNA binding domain (homeodomain) (Homo sapiens, UniProt P52952 P52952:138-197); assay: SPB-AAD, SPB-PEG4-AAD or SPB-Spermidine-AD + UV365 photocrosslinking, SDS-PAGE; none with formaldehyde or UV alone; conditions: label: 5'6-FAM
Sequence of Nkx2.5 DNA binding domain (homeodomain) (P52952 138-197, one chain of several): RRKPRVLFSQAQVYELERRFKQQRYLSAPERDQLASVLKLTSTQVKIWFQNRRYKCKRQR

T2 sequence (Q02078 2-95, one chain of several): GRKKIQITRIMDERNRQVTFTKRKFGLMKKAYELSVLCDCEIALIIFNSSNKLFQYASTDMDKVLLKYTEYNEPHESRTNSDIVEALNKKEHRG
Sequence of p53 DNA binding domain (P04637 102-292, one chain of several): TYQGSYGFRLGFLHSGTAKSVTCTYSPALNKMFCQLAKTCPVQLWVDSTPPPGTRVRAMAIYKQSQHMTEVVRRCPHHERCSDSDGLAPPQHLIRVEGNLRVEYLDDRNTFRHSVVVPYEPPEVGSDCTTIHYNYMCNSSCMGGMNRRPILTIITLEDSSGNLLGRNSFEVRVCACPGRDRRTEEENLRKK

B1: c2 NFAT 16-mer (dsDNA)
DNA 1: GTAGAGGAATTTCCTA
DNA 2: TAGGAAATTCCTCTAC
B1: binds (NFAT1 DNA binding domain [1]).

B2: MEF2 consensus site DNA (44-mer; only the core site printed) (dsDNA)
DNA 1: CTATAAATAG
DNA 2: CTATTTATAG
B2: binds (MEF2A DNA binding domain [2]).

B3: p53 tetramer site 37-mer (dsDNA)
DNA 1: GCTAGCGTAGCAGGCATGCCTAGGCATGCCTGCTACG
DNA 2: CGTAGCAGGCATGCCTAGGCATGCCTGCTACGCTAGC
B3: binds (p53 DNA binding domain).

B4: ARRE2 27-mer (dsDNA)
DNA 1: CCATAGAGGAAAATTTGTTTCATACAG
DNA 2: CTGTATGAAACAAATTTTCCTCTATGG
B4: binds (NFAT1 DNA binding domain [3]).

B5: MEF2 site 16-mer (only the core site printed) (dsDNA)
DNA 1: CTATAAATAG
DNA 2: CTATTTATAG
B5: binds (MEF2A DNA binding domain [4]).

B6: Nkx2.5 site 19-mer (dsDNA)
DNA 1: ACTATTTTAAGAACGTGCT
DNA 2: AGCACGTTCTTAAAATAGT
B6: binds [5].
